Laboratory results as given in publication doi:10.1101/2022.10.13.511879 (bioRxiv, 2022).
Residue numbers refer to the chain shown, from its start. Numbers in names are those of the source. Each block holds one binder with its values, some of them ahead of it.

What was measured:
POPDC2-VN155 = target: T1, POPDC2-VN155 (human, UniProt Q9HBU9 1-364); experiment: split reporter
T1 sequence (looked up): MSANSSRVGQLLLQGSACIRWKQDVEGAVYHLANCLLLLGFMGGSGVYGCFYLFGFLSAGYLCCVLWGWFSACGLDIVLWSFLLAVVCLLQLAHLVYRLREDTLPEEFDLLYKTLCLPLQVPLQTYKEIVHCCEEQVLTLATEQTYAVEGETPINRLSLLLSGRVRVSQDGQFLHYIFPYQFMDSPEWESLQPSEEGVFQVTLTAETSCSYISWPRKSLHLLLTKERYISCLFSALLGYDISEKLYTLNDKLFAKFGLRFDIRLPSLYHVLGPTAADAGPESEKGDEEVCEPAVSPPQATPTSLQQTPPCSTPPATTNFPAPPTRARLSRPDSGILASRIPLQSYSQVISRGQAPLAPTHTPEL

POPDC2 p.W188X-VN155 = target: T2, POPDC2 p.W188X-VN155 (human, UniProt Q9HBU9 1-187); experiment: split reporter
T2 sequence (looked up): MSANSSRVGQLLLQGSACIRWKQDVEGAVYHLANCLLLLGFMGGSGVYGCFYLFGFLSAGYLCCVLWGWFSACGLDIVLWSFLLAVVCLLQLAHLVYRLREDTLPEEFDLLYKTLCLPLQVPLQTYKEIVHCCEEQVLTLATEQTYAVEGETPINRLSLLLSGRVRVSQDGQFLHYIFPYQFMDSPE

FRET or BRET = target: the molecule itself; experiment: FRET or BRET
[1] = target: the molecule itself; experiment: SDS-PAGE and Western blot of oligomer bands that withstand SDS

- BiFC signal relative to the wild-type pair (POPDC2-VN155): 0.248
B1: POPDC1 p.Q153X-VC155 (domain or fragment, human, UniProt Q8NE79 1-152, looked up)
chain: MNYTESSPLRESTAIGFTPELESIIPVPSNKTTCENWREIHHLVFHVANICFAVGLVIPTTLHLHMIFLRGMLTLGCTLYIVWATLYRCALDIMIWNSVFLGVNILHLSYLLYKKRPVKIEKELSGMYRRLFEPLRVPPDLFRRLTGQFCMI

- BiFC signal relative to the wild-type pair (POPDC2 p.W188X-VN155): 0.59
B2: POPDC1-VC155 (natural protein, human, UniProt Q8NE79 1-360, looked up)
chain: MNYTESSPLRESTAIGFTPELESIIPVPSNKTTCENWREIHHLVFHVANICFAVGLVIPTTLHLHMIFLRGMLTLGCTLYIVWATLYRCALDIMIWNSVFLGVNILHLSYLLYKKRPVKIEKELSGMYRRLFEPLRVPPDLFRRLTGQFCMIQTLKKGQTYAAEDKTSVDDRLSILLKGKMKVSYRGHFLHNIYPCAFIDSPEFRSTQMHKGEKFQVTIIADDNCRFLCWSRERLTYFLESEPFLYEIFRYLIGKDITNKLYSLNDPTLNDKKAKKLEHQLSLCTQISMLEMRNSIASSSDSDDGLHQFLRGTSSMSSLHVSSPHQRASAKMKPIEEGAEDDDDVFEPASPNTLKVHQLP

B3: POPDC1 with C-terminal NanoLuc or HaloTag (NanoBRET constructs) (natural protein, human, UniProt Q8NE79 1-360, looked up)
chain: B2 chain
- stoichiometry N (FRET or BRET): 2

B4: POPDC1-CFP (natural protein, human, UniProt Q8NE79 1-360, looked up)
chain: B2 chain
- stoichiometry N [1]: 2

- BiFC signal relative to the wild-type pair (POPDC2-VN155): 0.43
B5: POPDC1 p.S201F-VC155 (natural protein, human, UniProt Q8NE79 1-360, looked up)
chain: B2 chain with S201F
